The text below walks through data of patent publication US20260191905A1 (MODERNATX, published 2026).

For assay [1], the target named is T1, human GPC3 on HepG2 cells (human, UniProt P51654 25-554).
T1 construct: whole, on cells
Briefly: FACS, phage-displayed clone on HepG2, well E4; same clone on A-431 (no GPC3): 1163.66. On the technique in general: A flow cytometer gives signals particle by particle.

Assay [2] deals with T2, human GPC3 recombinant protein (human, UniProt P51654 25-559).
T2 construct: also called huGPC3; Human GPC3 protein
T2 sequence (P51654 25-559 limits assumed): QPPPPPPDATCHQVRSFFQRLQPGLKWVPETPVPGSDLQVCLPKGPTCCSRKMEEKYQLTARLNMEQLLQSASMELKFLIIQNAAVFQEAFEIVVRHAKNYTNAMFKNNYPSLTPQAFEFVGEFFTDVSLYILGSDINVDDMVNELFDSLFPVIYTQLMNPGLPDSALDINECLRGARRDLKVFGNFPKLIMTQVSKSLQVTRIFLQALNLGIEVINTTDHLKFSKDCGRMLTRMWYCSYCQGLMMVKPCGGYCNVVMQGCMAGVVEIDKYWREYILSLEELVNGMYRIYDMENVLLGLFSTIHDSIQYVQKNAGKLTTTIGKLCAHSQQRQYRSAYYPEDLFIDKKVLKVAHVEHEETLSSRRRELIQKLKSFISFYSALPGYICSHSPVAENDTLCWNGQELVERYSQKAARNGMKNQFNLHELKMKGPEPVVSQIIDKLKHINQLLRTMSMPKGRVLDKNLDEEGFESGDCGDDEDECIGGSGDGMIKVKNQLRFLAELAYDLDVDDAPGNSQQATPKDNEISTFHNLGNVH
Kind of assay: SPR (Biacore), VHH-His over human GPC3 on CM5; fit 62.5 - 7.8 nM; Rmax 22.5 RU; Chi2 0.207. On the procedure:
(§1) Affinities of the 19 VHH-His tagged domains were then determined by BiaCore assay. Human GPC3 protein (Sino biological cat. nr. 10088-H08H-500) was immobilized on CM5 sensor chip (GE Healthcare) as antigen. Purified VHH-His tagged domains were diluted in BiaCore buffer (0.01 M HEPES pH 7.4, 0.15 M NaCl, 3 mM EDTA, 0.05% P20) to 500 nM and injected over 2 minutes at […] followed by a half dilution series to 7.8 nM. 10 μl of 10 mM NaOH/1M NaCl were injected between samples and then off-rate wash was 5 minutes.
Background: Surface plasmon resonance follows binding to a sensor surface in real time, without labels.

Assay [3] addresses T2, human GPC3 recombinant protein. Briefly: SPR (Biacore) off-rate screen, periplasmic extract over human GPC3 on CM5; R0 61.6. On the procedure:
(§2) Human GPC3 protein in acetate buffer, pH 5.0, was immobilized in a sensor chip CM5 (GE Healthcare; Cat. Nr. BR-1005-30; Lot. Nr.10245232) and successful immobilization was confirmed by using a commercially available human GPC3 antibody (R&D cat. nr. MAB2119) and the anti-GPC3-VHH-Fc (both at 10 μg/mL). Periplasmic extracts from the MP were diluted in Biacore Buffer (0.01 M HEPES pH 7.4, 0.15 M NaCl, 3 mM EDTA, 0.05% P20) and injected over 2 minutes at 30 μL/min. 10 μl of 10 mM NaOH/1M NaCl were injected between samples and off-rates were measured over 5 minutes. Off-rate ([…]) were calculated using BIACORE software 1:1 interaction Langmuir binding model.

The target in assay [4] is T1, human GPC3 on HepG2 cells. Kind of assay: FACS, periplasmic extract 1:5 + anti-c-myc + GAM-APC on HepG2, well E4; same on A-431: 760.97.
The target of assay [5] is T1, human GPC3 on HepG2 cells. Briefly: FACS, phage-displayed clone on HepG2, well E4; same clone on A-431 (no GPC3): 2.08%.
Assay [6] deals with T2, human GPC3 recombinant protein. Briefly: SPR (Biacore), summary table; Chi2 0.207; Profile 'Very good'. On the procedure: as §1
Assay [7] has as its target T1, human GPC3 on HepG2 cells. Kind of assay: FACS, periplasmic extract 1:5 + anti-c-myc + GAM-APC on HepG2, well E4; same on A-431: 0.25%.
Assay [8] deals with T2, human GPC3 recombinant protein. Briefly: SPR (Biacore) off-rate screen, periplasmic extract over human GPC3 on CM5; R0 29.7. On the procedure:
as §2

Assay [9] has as its target T1, human GPC3 on HepG2 cells. Briefly: FACS, phage-displayed clone on HepG2. On the procedure: Binding of phage with surface expressed VHH domains to HepG2 cells was assessed using FACS. […] The cell suspension was distributed throughout at 96-well, U-bottom plate (85 μL/well) and incubated with phage (15 μL) on ice for 60 minutes with shaking.
For assay [10], the target named is T2, human GPC3 recombinant protein. Kind of assay: SPR (Biacore) off-rate screen, periplasmic extract over human GPC3 on CM5; R0 48.2. On the procedure:
as §2

Assay [11] has the same target. Briefly: SPR (Biacore) off-rate screen, periplasmic extract over human GPC3 on CM5; R0 36.0. On the procedure:
as §2

Assay [12] shares this target. Kind of assay: SPR epitope binning on human GPC3. Here is the method:
The 19 VHH-His tagged domains were then evaluated for epitope-binding site. All VHHs were injected one at a time to evaluate the epitope binding site for each VHH domain. […] Human GPC3 was injected followed by an off rate wash for 4 minutes. No binding is observed if the VHH binds at the same epitope as VHH2, while a second binding event is observed if the VHH binds at a different epitope. All VHHs were binned into two groups based on the epitopes. VHH2 and VHH3 bind the same epitope and all other VHs bind the second epitope (FIG. 19).

For assay [13] the target is unchanged. Kind of assay: SPR (Biacore) off-rate screen, periplasmic extract over human GPC3 on CM5; R0 34.4. On the procedure: as §2

Residue numbers refer to the chain shown, from its start.

T1 sequence (P51654 25-554 limits assumed): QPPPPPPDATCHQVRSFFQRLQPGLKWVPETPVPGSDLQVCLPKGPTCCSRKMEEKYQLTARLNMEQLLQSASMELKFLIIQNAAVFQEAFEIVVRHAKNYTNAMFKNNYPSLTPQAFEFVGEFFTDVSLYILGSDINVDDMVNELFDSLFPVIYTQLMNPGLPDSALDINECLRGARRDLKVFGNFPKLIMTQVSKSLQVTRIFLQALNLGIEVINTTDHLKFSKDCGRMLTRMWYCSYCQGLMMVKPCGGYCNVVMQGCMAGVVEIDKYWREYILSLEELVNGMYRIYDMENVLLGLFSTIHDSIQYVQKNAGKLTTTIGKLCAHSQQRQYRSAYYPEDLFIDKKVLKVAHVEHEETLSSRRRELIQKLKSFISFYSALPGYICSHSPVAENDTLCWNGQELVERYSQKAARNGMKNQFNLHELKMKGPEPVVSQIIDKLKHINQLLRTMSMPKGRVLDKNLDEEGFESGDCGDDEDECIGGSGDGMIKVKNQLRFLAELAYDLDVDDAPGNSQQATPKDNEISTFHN

B1: anti-GPC3 VHH-His tagged domain VHH3 (VHH)
VHH: EVQLVESGGGVVQPGRSLRLSCAASGFTFSNYLMQWVRQAPGKGLVWLSNINSDGSSTDYADSVKGRFTISRDNAKNTLYLQMNSLRAEDTAVYYCRVGAFDYWGQGTLVTVSS
notes: Produced from a mammalian expression vector as a His fusion; not shown: His tag
Molecule B1 registered a Mean FL2-A in [1] of 18600. In [2], the Ka turned out to be 3.09e+08 M⁻¹; the Kd (usually the concentration at which binding is half-saturated) was determined as 3.23 nM; the koff (commonly the rate constant with which the complex falls apart) came to 0.00141 s⁻¹; the kon (as a rule, a measure of how fast the partners come together) came to 435000 M⁻¹ s⁻¹. Further, the koff in [3] turned out to be 0.00154 s⁻¹. For the same molecule, the Mean FL4-A in assay [4] was found to be 796. Further, in assay [5], the % of Binding amounted to 60.1%. Moreover, the Kd in [6] amounted to 3.23 nM. The % of Binding in [7] stood at 0.27%.

B2: VH32 (VHH)
VHH: QVQLVESGGGLVQPGGSLRLSCAASGFTFSSFAMSWVRQAPGKGLEWVSAISGSGGRTHYADSVKGRFTISRDNSKNTLYLQMNSLRAEDTAVYYCAKEALTGVFDYWGQGTLVTVSS
notes: also called VHH32
On to B2, for which the koff in assay [8] worked out at 0.0948 s⁻¹. In assay [9], the binding result is given as “no binding”.

B3: VH21 (VHH)
VHH: QVQLVESGGGLVQPGGSLRLSCAASGFTFSSYAMSWVRQAPGKEPEWISSISGSGSSTYYADSLKGRFTISRDNSKNTLYLQMNSLRAEDTAVYYCSKDPRFGEPPFDYWGQGTLVTVSS
notes: also called VHH21
As to B3, the koff in assay [10] came out at 0.00269 s⁻¹.

B4: VH36 (VHH)
VHH: B3 VHH with I48V, S54G, K98R, L115T
notes: also called VHH36
For the molecule B4, the koff in assay [11] was found to be 0.00566 s⁻¹.

B5: anti-GPC3 VHH-His tagged domain VHH19 (VHH)
VHH: EEQLVESGGGLVQPGGSLRLSCAASGFTFSSYAMSWVRQAPGKEPEWVSSISGGGGSTYYADSLKGRFTISRDNSKNTLYLQMNSLRAEDTAVYYCARDPRYGEPPFDYRCQGTTVTVSS
notes: as for B1
Consider B5, for which the binding result in [12] is reported as “binds”.

B6: VH26 (VHH)
VHH: B3 VHH with Q1E
notes: also called VHH26
On to B6, for which the koff in assay [13] worked out at 0.00379 s⁻¹.
